Assay results taken from article PMC9502102, “Thrombin Determination Using Graphene Oxide Sensors with Co-Assisted Amplification”.

Target: thrombin (UniProt P00734;P00734 328-363;364-622)
Assay: fluorescence recovery (FAM-TBA released from GO/capture DNA); FAM-TBA with capture DNA on PEG-blocked GO; thrombin 0.0025-15 nM; sensor LOD is not a Kd; GO 5 ug/mL, 10 nM FAM-DNA, 30 min incubation (covalent sensor); PBS listed in materials, PBS vs water compared in Fig. S6; pH, salt and temperature not in the m

Binder: AAAAGTCCGTGGTAGGGCAGGTTGGGGTGACT (ssDNA) [Thrombin binding aptamer (TBA)]
- binding result: binds
